Consider three molecules from publication PMC8212047 (Frontiers in Immunology, 2021).

B1: RGN10987 (antibody, V domains shown)
VH: QVQLVESGGGVVQPGRSLRLSCAASGFTFSNYAMYWVRQAPGKGLEWVAVISYDGSNKYYADSVKGRFTISRDNSKNTLYLQMNSLRTEDTAVYYCASGSDYGDYLLVYWGQGTLVTVSS
VL: QSALTQPASVSGSPGQSITISCTGTSSDVGGYNYVSWYQQHPGKAPKLMIYDVSKRPSGVSNRFSGSKSGNTASLTISGLQSEDEADYYCNSLTSISTWVFGGGTKLTVL
B2: CB6 (antibody, V domains shown)
VH: EVQLVESGGGLVQPGGSLRLSCAASGFTVSSNYMSWVRQAPGKGLEWVSVIYSGGSTFYADSVKGRFTISRDNSMNTLFLQMNSLRAEDTAVYYCARVLPMYGDYLDYWGQGTLVTVSS
VL: not shown
notes: source: produced and purified as previously described (29)
B3: RGN10933 (antibody, V domains shown)
VH: QVQLVESGGGLVKPGGSLRLSCAASGFTFSDYYMSWIRQAPGKGLEWVSYITYSGSTIYYADSVKGRFTISRDNAKSSLYLQMNSLRAEDTAVYYCARDRGTTMVPFDYWGQGTLVTVSS
VL: DIQMTQSPSSLSASVGDRVTITCQASQDITNYLNWYQQKPGKAPKLLIYAASNLETGVPSRFSGSGSGTDFTFTISGLQPEDIATYYCQQYDNLPLTFGGGTKVEIK

In this test the target is SARS-CoV-2 RBD (Wuhan-1) RBD-FC fusion protein (SARS-CoV-2, UniProt P0DTC2). Nature of the test: SPR. As to conditions: both partners purified.
On to B1, for which the binding result is “binds”.
Consider B2, for which the binding result is “binds”.
To B3 belongs “binds”.
